Each substance was assayed against Duffy antigen receptor for chemokines (DARC) (human) (UniProt Q16570) (assay: SPR).

Row | Substance | Kd
1 | HlgC (from UniProt Q07227 30-315) (natural protein) | 229 nM
2 | LukE (from UniProt O54081 29-314) (natural protein) | 56.4 nM
3 | HlgA (from UniProt P0A074 30-309) (natural protein) | 29.2 nM
